Laboratory results as given in the supplement of paper PMC11246515.
± gives the standard deviation of the averaged measurements.

Test: total protein half-life in vivo (active degradation + dilution); higher = more stable protein
[1] = E. coli NCM3722 delta-clpP delta-lon delta-hslV, growth: N-lim chemostat, doubling time 6 h
[2] = E. coli NCM3722 delta-clpP, growth: N-lim chemostat, doubling time 6 h
[3] = E. coli NCM3722 delta-hslV, growth: N-lim chemostat, doubling time 6 h
[4] = E. coli NCM3722 delta-lon, growth: N-lim chemostat, doubling time 6 h
[5] = E. coli NCM3722 delta-smpB, growth: N-lim chemostat, doubling time 6 h
[6] = wild type E. coli NCM3722, growth: C-lim chemostat, doubling time 3 h
[7] = wild type E. coli NCM3722, growth: C-lim chemostat, doubling time 6 h
[8] = wild type E. coli NCM3722, growth: C-lim chemostat, doubling time 12 h
[9] = wild type E. coli NCM3722, growth: N-lim chemostat, doubling time 6 h
[10] = wild type E. coli NCM3722, growth: N-lim chemostat, doubling time 12 h
[11] = wild type E. coli NCM3722, growth: P-lim chemostat, doubling time 6 h
[12] = wild type E. coli NCM3722, growth: P-lim chemostat, doubling time 12 h

MSEFSQTVPELVAWARKNDFSISLPVDRLSFLLAVATLNGERLDGEMSEGELVDAFRHVSDAFEQTSETIGVRANNAINDMVRQRLLNRFTSEQAEGNAIYRLTPLGIGITDYYIRQREFSTLRLSMQLSIVAGELKRAADAAEEGGDEFHWHRNVYAPLKYSVAEIFDSIDLTQRLMDEQQQQVKDDIAQLLNKDWRAAISSCELLLSETSGTLRELQDTLEAAGDKLQANLLRIQDATMTHDDLHFVDRLVFDLQSKLDRIISWGQQSIDLWIGYDRHVHKFIRTAIDMDKNRVFAQRLRQSVQTYFDEPWALTYANADRLLDMRDEEMALRDEEVTGELPEDLEYEEFNEIREQLAAIIEEQLAVYKTRQVPLDLGLVVREYLSQYPRARHFDVARIVIDQAVRLGVAQADFTGLPAKWQPINDYGAKVQAHVIDKY
total protein half-life in vivo [1]: 5.86 ± 0.58 h | total protein half-life in vivo [2]: 6.12 ± 0.39 h | total protein half-life in vivo [3]: 5.79 ± 0.81 h | total protein half-life in vivo [4]: 5.07 ± 0.54 h | total protein half-life in vivo [5]: 5.246 ± 0.022 h | total protein half-life in vivo [6]: 3.2 ± 0.06 h | total protein half-life in vivo [7]: 5.42 ± 0.67 h | total protein half-life in vivo [8]: 9.64 ± 0.19 h | total protein half-life in vivo [9]: 5.36 ± 0.55 h | total protein half-life in vivo [10]: 7.76 ± 0.8 h | total protein half-life in vivo [11]: 5.7 ± 0.13 h | total protein half-life in vivo [12]: 8.345 ± 0.032 h

MQNKLASGARLGRQALLFPLCLVLYEFSTYIGNDMIQPGMLAVVEQYQAGIDWVPTSMTAYLAGGMFLQWLLGPLSDRIGRRPVMLAGVVWFIVTCLAILLAQNIEQFTLLRFLQGISLCFIGAVGYAAIQESFEEAVCIKITALMANVALIAPLLGPLVGAAWIHVLPWEGMFVLFAALAAISFFGLQRAMPETATRIGEKLSLKELGRDYKLVLKNGRFVAGALALGFVSLPLLAWIAQSPIIIITGEQLSSYEYGLLQVPIFGALIAGNLLLARLTSRRTVRSLIIMGGWPIMIGLLVAAAATVISSHAYLWMTAGLSIYAFGIGLANAGLVRLTLFASDMSKGTVSAAMGMLQMLIFTVGIEISKHAWLNGGNGLFNLFNLVNGILWLSLMVIFLKDKQMGNSHEG [P0AEY8]
total protein half-life in vivo [6]: 3.11 h | total protein half-life in vivo [11]: 5.65 ± 0.22 h | total protein half-life in vivo [12]: 11 ± 2.6 h

MPVRAQRIQHVMQDTIINFYSTSDDYGDFSNFAAWPIKVDGKTWPTSEHYFQAQKFLDEKYREEIRRVSSPMVAARMGRDRSKPLRKNWESVKEQVMRKALRAKFEQHAELRALLLATAPAKLVEHTENDAYWGDGGHGKGKNRLGYLLMELREQLAIEK
total protein half-life in vivo [3]: 4.25 h | total protein half-life in vivo [8]: 12.3 h

MVRKGCNSLVRAEKILTHIAWVGMASYMELLNKFQYPKSSLLNLLNVMVDCGFLIKNKNGYYSLGIKNYELGCQALHRQNIFEVTKRPMQELSLKSGLVCHLGAMESISAIYLDKIESPDSVPTSKSWIGKKLELHITALGKALLAWKTREELDYFLEALTLTPHTRNTFTDKKLFLEELQKTRLRGWAIDNEESTYGAVCLSMPVFNMYNRVNYAISLSGDPVVYSGNKIDSYLELLRKCAEQISYGLGYRNENEHLRKGN
total protein half-life in vivo [6]: 1.15 h | total protein half-life in vivo [7]: 1.6 ± 0.092 h | total protein half-life in vivo [8]: 2.7 ± 0.086 h | total protein half-life in vivo [10]: 3.16 h

MNKAKRLEILTRLRENNPHPTTELNFSSPFELLIAVLLSAQATDVSVNKATAKLYPVANTPAAMLELGVEGVKTYIKTIGLYNSKAENIIKTCRILLEQHNGEVPEDRAALEALPGVGRKTANVVLNTAFGWPTIAVDTHIFRVCNRTQFAPGKNVEQVEEKLLKVVPAEFKVDCHHWLILHGRYTCIARKPRCGSCIIEDLCEYKEKVDI [P0AB83]
total protein half-life in vivo [1]: 5.59 ± 0.65 h | total protein half-life in vivo [2]: 5.67 ± 0.41 h | total protein half-life in vivo [3]: 5.9 ± 0.36 h | total protein half-life in vivo [5]: 5.611 ± 0.039 h | total protein half-life in vivo [6]: 3.22 ± 0.093 h | total protein half-life in vivo [7]: 5.58 ± 0.078 h | total protein half-life in vivo [8]: 10.7 ± 0.51 h | total protein half-life in vivo [9]: 5.79 ± 0.092 h | total protein half-life in vivo [10]: 11.95 ± 0.045 h | total protein half-life in vivo [11]: 5.88 ± 0.55 h | total protein half-life in vivo [12]: 10.9 ± 0.86 h

MIDDDGYRPNVGIVICNRQGQVMWARRFGQHSWQFPQGGINPGESAEQAMYRELFEEVGLSRKDVRILASTRNWLRYKLPKRLVRWDTKPVCIGQKQKWFLLQLVSGDAEINMQTSSTPEFDGWRWVSYWYPVRQVVSFKRDVYRRVMKEFASVVMSLQENTPKPQNASAYRRKRG [P0A776]
total protein half-life in vivo [1]: 5.67 ± 0.079 h | total protein half-life in vivo [2]: 5.62 ± 0.48 h | total protein half-life in vivo [3]: 6.81 ± 1.3 h | total protein half-life in vivo [4]: 6.4 ± 0.12 h | total protein half-life in vivo [5]: 5.02 ± 0.73 h | total protein half-life in vivo [7]: 5.48 ± 0.44 h | total protein half-life in vivo [8]: 9.01 ± 3.2 h | total protein half-life in vivo [9]: 4.84 ± 0.076 h | total protein half-life in vivo [10]: 11.9 ± 3.9 h | total protein half-life in vivo [12]: 9.25 ± 0.6 h

MKLYIYDHCPYCLKARMIFGLKNIPVELHVLLNDDAETPTRMVGQKQVPILQKDDSRYMPESMDIVHYVDKLDGKPLLTGKRSPAIEEWLRKVNGYANKLLLPRFAKSAFDEFSTPAARKYFVDKKEASAGNFADLLAHSDGLIKNISDDLRALDKLIVKPNAVNGELSEDDIQLFPLLRNLTLVAGINWPSRVADYRDNMAKQTQINLLSSMAI [P0AC59]
total protein half-life in vivo [2]: 5.06 ± 0.73 h | total protein half-life in vivo [3]: 5.49 ± 0.35 h | total protein half-life in vivo [4]: 5.77 ± 0.24 h | total protein half-life in vivo [5]: 5.01 ± 0.41 h | total protein half-life in vivo [7]: 5.57 ± 0.23 h | total protein half-life in vivo [8]: 11.7 ± 1.8 h | total protein half-life in vivo [9]: 5.02 ± 0.15 h | total protein half-life in vivo [10]: 9.43 ± 0.3 h | total protein half-life in vivo [11]: 5.33 ± 0.55 h | total protein half-life in vivo [12]: 11.9 ± 0.21 h

MKIRSQVGMVLNLDKCIGCHTCSVTCKNVWTSREGVEYAWFNNVETKPGQGFPTDWENQEKYKGGWIRKINGKLQPRMGNRAMLLGKIFANPHLPGIDDYYEPFDFDYQNLHTAPEGSKSQPIARPRSLITGERMAKIEKGPNWEDDLGGEFDKLAKDKNFDNIQKAMYSQFENTFMMYLPRLCEHCLNPACVATCPSGAIYKREEDGIVLIDQDKCRGWRMCITGCPYKKIYFNWKSGKSEKCIFCYPRIEAGQPTVCSETCVGRIRYLGVLLYDADAIERAASTENEKDLYQRQLDVFLDPNDPKVIEQAIKDGIPLSVIEAAQQSPVYKMAMEWKLALPLHPEYRTLPMVWYVPPLSPIQSAADAGELGSNGILPDVESLRIPVQYLANLLTAGDTKPVLRALKRMLAMRHYKRAETVDGKVDTRALEEVGLTEAQAQEMYRYLAIANYEDRFVVPSSHRELAREAFPEKNGCGFTFGDGCHGSDTKFNLFNSRRIDAIDVTSKTEPHP
total protein half-life in vivo [1]: 5.82 ± 0.15 h | total protein half-life in vivo [2]: 5.37 ± 0.84 h | total protein half-life in vivo [3]: 5.9 ± 0.44 h | total protein half-life in vivo [4]: 5.52 ± 0.8 h | total protein half-life in vivo [5]: 5.81 ± 0.086 h | total protein half-life in vivo [7]: 5.809 ± 0.058 h | total protein half-life in vivo [8]: 12.8 h | total protein half-life in vivo [9]: 5.29 h | total protein half-life in vivo [10]: 11.3 ± 0.39 h | total protein half-life in vivo [11]: 6 ± 0.39 h | total protein half-life in vivo [12]: 10.8 ± 2.4 h

MMANIWWSLPLTLIVFFAARKLAARYKFPLLNPLLVAMVVIIPFLMLTGISYDSYFKGSEVLNDLLQPAVVALAYPLYEQLHQIRARWKSIITICFIGSVVAMVTGTSVALLMGASPEIAASILPKSVTTPIAMAVGGSIGGIPAISAVCVIFVGILGAVFGHTLLNAMRIRTKAARGLAMGTASHALGTARCAELDYQEGAFSSLALVLCGIITSLIAPFLFPIILAVMG [P0AD19]
total protein half-life in vivo [9]: 5.99 h

MYIGIDLGTSGVKVILLNEQGEVVAAQTEKLTVSRPHPLWSEQDPEQWWQATDRAMKALGDQHSLQDVKALGIAGQMHGATLLDAQQRVLRPAILWNDGRCAQECTLLEARVPQSRVITGNLMMPGFTAPKLLWVQRHEPEIFRQIDKVLLPKDYLRLRMTGEFASDMSDAAGTMWLDVAKRDWSDVMLQACDLSRDQMPALYEGSEITGALLPEVAKAWGMATVPVVAGGGDNAAGAVGVGMVDANQAMLSLGTSGVYFAVSEGFLSKPESAVHSFCHALPQRWHLMSVMLSAASCLDWAAKLTGLSNVPALIAAAQQADESAEPVWFLPYLSGERTPHNNPQAKGVFFGLTHQHGPNELARAVLEGVGYALADGMDVVHACGIKPQSVTLIGGGARSEYWRQMLADISGQQLDYRTGGDVGPALGAARLAQIAANPEKSLIELLPQLPLEQSHLPDAQRYAAYQPRRETFRRLYQQLLPLMA
total protein half-life in vivo [1]: 5.25 ± 0.23 h | total protein half-life in vivo [2]: 4.96 ± 0.27 h | total protein half-life in vivo [3]: 5.75 ± 1.6 h | total protein half-life in vivo [4]: 4.82 ± 0.32 h | total protein half-life in vivo [5]: 4.5 ± 0.047 h | total protein half-life in vivo [6]: 3.52 ± 0.21 h | total protein half-life in vivo [7]: 5.87 ± 0.13 h | total protein half-life in vivo [8]: 9.67 ± 1.8 h | total protein half-life in vivo [9]: 4.57 ± 0.12 h | total protein half-life in vivo [10]: 8 ± 1.8 h | total protein half-life in vivo [11]: 6.62 ± 0.53 h | total protein half-life in vivo [12]: 12.5 ± 0.58 h

MSLPHCPKCNSEYTYEDNGMYICPECAYEWNDAEPAQESDELIVKDANGNLLADGDSVTIIKDLKVKGSSSMLKIGTKVKNIRLVEGDHNIDCKIDGFGPMKLKSEFVKKN [P0AFJ1]
total protein half-life in vivo [1]: 5.52 ± 0.25 h | total protein half-life in vivo [3]: 6.14 ± 1.1 h | total protein half-life in vivo [4]: 5.91 ± 1 h | total protein half-life in vivo [5]: 4.71 ± 0.15 h | total protein half-life in vivo [6]: 2.53 ± 0.093 h | total protein half-life in vivo [8]: 10.2 ± 0.45 h | total protein half-life in vivo [9]: 4.88 h | total protein half-life in vivo [10]: 10.2 ± 0.21 h | total protein half-life in vivo [11]: 5.38 ± 0.21 h

MSVPVQHPMYIDGQFVTWRGDAWIDVVNPATEAVISRIPDGQAEDARKAIDAAERAQPEWEALPAIERASWLRKISAGIRERASEISALIVEEGGKIQQLAEVEVAFTADYIDYMAEWARRYEGEIIQSDRPGENILLFKRALGVTTGILPWNFPFFLIARKMAPALLTGNTIVIKPSEFTPNNAIAFAKIVDEIGLPRGVFNLVLGRGETVGQELAGNPKVAMVSMTGSVSAGEKIMATAAKNITKVCLELGGKAPAIVMDDADLELAVKAIVDSRVINSGQVCNCAERVYVQKGIYDQFVNRLGEAMQAVQFGNPAERNDIAMGPLINAAALERVEQKVARAVEEGARVAFGGKAVEGKGYYYPPTLLLDVRQEMSIMHEETFGPVLPVVAFDTLEDAISMANDSDYGLTSSIYTQNLNVAMKAIKGLKFGETYINRENFEAMQGFHAGWRKSGIGGADGKHGLHEYLQTQVVYLQS
total protein half-life in vivo [1]: 4.75 ± 0.26 h | total protein half-life in vivo [2]: 4.93 ± 1 h | total protein half-life in vivo [3]: 3.81 ± 0.14 h | total protein half-life in vivo [4]: 4.56 ± 0.062 h | total protein half-life in vivo [5]: 4.55 ± 0.52 h | total protein half-life in vivo [6]: 3.19 ± 0.26 h | total protein half-life in vivo [7]: 5.86 ± 0.33 h | total protein half-life in vivo [8]: 10.24 ± 0.092 h | total protein half-life in vivo [9]: 4.82 ± 1.6 h | total protein half-life in vivo [10]: 5.01 ± 1.9 h | total protein half-life in vivo [11]: 5.871 ± 0.049 h | total protein half-life in vivo [12]: 11.3 ± 0.13 h
